According to patent publication US20160168268A1 (University of California, published 2016):

Biological target: T1, human IgE (human, UniProt P01854-1 1-428, FITC label in the BMMC experiments)
T1 construct: also called standard IgE; myeloma IgE
Assay: method not stated

T1 sequence (P01854 other isoform, or with tags, fused parts or gaps): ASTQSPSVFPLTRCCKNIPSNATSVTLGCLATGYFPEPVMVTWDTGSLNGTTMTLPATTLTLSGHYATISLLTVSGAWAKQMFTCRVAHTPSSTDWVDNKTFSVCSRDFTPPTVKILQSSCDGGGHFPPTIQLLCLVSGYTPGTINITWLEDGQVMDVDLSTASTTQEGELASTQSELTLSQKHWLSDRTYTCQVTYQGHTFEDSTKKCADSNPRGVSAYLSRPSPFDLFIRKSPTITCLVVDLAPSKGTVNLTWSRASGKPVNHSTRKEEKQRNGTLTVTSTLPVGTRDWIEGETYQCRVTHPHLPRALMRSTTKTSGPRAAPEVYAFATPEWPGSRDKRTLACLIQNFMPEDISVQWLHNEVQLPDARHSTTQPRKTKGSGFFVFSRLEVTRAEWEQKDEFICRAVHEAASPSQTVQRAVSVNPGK

Kd: 2540 nM
B1: monoclonal anti-human IgE antibody P6.2 (antibody, V domains shown)
VH: QVQLQQSGAELVRPGTSVKVSCKASGYAFTNYLIEWVKQRPGQGLEWIGVINPGSGFTKYNEKFKGKATLTADKSSSTAYMHLSSLTSDDSAVYFCAREDVYSWFAYWGQGTLVTVSA
VL: DIVLTQSPASLAVSLGQRATISCRASESVDSYGNSFMHWYQQKPGQPPKLLIYRTSNLESGIPARFSGSGSRTDFTLTINPVEADDVATYFCQQSYEDPFTFGSGTKLEIK
notes: also called mAb P6.2; mAb 6.2
